Measurements from article PMC4741959, “Methionine adenosyltransferase α2 sumoylation positively regulate Bcl-2 expression in human colon and liver cancer cells”.

B1: Bcl-2 P2 promoter probe 2 (site 2) (dsDNA)
DNA 1: GGTTTAATGTAACTTTCAATGG
DNA 2: CCATTGAAAGTTACATTAAACC
B2: Bcl-2 P2 promoter probe 3 (site 3) (dsDNA)
DNA 1: GGCAGCTTAATACATTCTTTTTAGCCG
DNA 2: CGGCTAAAAAGAATGTATTAAGCTGCC
B3: Bcl-2 P2 promoter probe 1 (site 1) (dsDNA)
DNA 1: TGCGGATTGACATTTCTGTGAA
DNA 2: TTCACAGAAATGTCAATCCGCA

Target: recombinant MATα2 (UniProt P31153 1-395)
Assay: EMSA; 200 ng protein; LightShift Chemiluminescent EMSA Kit protocol (Thermo); buffer, salt, pH and binding temperature not stated
Conditions: label: biotin (extract EMSA), SYBR Green gel stain with recombinant protein, blunt

Sequence of recombinant MATα2 (P31153 whole entry): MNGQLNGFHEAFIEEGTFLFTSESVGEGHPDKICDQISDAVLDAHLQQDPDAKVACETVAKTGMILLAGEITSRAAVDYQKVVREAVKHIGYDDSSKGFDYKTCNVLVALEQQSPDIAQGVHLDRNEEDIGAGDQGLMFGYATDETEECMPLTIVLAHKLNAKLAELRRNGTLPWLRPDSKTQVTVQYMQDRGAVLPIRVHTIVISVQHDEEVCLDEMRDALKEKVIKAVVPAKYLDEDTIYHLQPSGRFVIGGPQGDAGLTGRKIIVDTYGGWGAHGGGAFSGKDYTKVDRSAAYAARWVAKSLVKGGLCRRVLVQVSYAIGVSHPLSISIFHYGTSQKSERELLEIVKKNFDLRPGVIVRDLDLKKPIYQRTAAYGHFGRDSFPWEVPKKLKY

Binding result, binds:
B1
B2
B3
